T1: matriptase (ST14) over-expressed in HEK293T cells (human, UniProt Q9Y5Y6 1-855)
T1 construct: also called matriptase-1
T1 sequence: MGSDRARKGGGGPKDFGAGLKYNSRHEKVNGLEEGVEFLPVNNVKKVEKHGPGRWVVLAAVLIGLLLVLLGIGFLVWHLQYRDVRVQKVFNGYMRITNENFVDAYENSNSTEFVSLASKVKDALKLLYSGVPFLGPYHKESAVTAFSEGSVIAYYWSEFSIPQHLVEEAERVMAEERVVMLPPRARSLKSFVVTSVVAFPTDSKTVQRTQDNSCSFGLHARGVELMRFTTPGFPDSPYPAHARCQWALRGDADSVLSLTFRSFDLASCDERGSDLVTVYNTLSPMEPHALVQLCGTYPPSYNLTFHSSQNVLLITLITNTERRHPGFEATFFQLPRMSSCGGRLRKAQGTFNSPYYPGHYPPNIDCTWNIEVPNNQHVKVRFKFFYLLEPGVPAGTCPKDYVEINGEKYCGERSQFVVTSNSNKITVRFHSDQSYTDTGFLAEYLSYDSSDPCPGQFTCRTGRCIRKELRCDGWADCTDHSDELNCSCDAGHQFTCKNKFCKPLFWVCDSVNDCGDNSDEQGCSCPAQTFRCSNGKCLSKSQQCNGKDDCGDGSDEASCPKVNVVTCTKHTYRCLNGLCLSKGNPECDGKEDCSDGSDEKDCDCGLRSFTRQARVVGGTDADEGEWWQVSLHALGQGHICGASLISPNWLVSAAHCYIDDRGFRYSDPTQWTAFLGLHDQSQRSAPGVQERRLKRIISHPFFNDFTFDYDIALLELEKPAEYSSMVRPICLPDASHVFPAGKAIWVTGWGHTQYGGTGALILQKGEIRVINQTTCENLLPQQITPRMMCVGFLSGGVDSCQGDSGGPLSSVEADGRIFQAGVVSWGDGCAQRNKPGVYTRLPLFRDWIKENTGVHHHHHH

T2: TMPRSS6 expressed in transfected HepG2 cells (HAMP-luciferase reporter assay) (UniProt Q8IU80 1-811, limits assumed)
T2 sequence (looked up): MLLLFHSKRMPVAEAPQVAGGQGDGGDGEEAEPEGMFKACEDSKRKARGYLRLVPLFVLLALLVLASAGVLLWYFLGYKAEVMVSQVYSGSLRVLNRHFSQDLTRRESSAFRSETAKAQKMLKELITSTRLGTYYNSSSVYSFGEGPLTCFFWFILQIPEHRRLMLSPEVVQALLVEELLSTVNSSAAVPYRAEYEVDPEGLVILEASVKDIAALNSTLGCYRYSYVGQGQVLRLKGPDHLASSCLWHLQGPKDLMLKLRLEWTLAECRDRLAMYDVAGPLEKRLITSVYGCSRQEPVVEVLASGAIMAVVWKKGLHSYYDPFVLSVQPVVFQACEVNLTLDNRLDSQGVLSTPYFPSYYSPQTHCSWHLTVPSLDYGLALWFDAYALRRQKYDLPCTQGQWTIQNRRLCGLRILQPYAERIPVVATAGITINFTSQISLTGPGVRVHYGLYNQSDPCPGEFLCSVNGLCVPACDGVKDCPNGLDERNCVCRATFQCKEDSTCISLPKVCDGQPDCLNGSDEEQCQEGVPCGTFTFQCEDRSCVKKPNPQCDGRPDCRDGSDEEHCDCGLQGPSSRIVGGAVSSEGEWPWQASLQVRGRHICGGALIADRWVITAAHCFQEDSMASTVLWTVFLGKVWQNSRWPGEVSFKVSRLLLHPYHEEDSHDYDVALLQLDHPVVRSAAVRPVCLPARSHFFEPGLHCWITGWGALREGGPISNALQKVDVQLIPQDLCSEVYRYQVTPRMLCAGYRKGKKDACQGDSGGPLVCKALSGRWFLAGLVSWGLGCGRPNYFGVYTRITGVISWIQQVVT

B1: MWTx-002 anti-TMPRSS6 monoclonal antibody (antibody, mouse IgG2b, kappa, V domains shown)
VH: EVQLQQSGAELVKPGASVKLSCTASGFNIKDYYIHWVKERTEQGLEWFGRIDPEDGESEYAPKFQGKATLTADTSSNTAYLQLSSLTSEDTAVYYCTRGDSMMVTYFDYWGQGTTLTVSS
VL: DIVMTQSHKFMSTSVGDRVSITCKASQDVSTAVAWYQQKPGQSPKLLIYWAFTRHTGVPDRFTSTGSGTDYALTISSVQAEDLALYYCQQHYRSPWTFGGGTKLEIKR
notes: Mouse monoclonal antibody from hybridoma (ATCC PTA-126760)
B2: humanized anti-TMPRSS6 antibody variant hzMWTx-002 Var (antibody, human IgG1, kappa, N297A, V domains shown)
VH: EVQLVQSGAEVKKPGASVKVSCKASGFNIKDYYIHWVRQATGQGLEWMGRIDPEDAESEYAPKFQGRVTITADTSTDTAYMELSSLRSEDTAVYYCTRGDSMMVTYFDYWGQGTLVTVSS
VL: DIQMTQSPSSLSASVGDRVTITCKASQDVSTAVAWYQQKPGKAPKLLIYWAFTRHTGVPSRFSGSGSGTDYALTISSLQPEDFATYYCQQHYRSPWTFGGGTKVEIKR
notes: Human IgG1 / kappa
B3: humanized anti-TMPRSS6 antibody variant hzMWTx-003 Var (antibody, human IgG1, kappa, L234A L235A, V domains shown)
VH: QVQLVQSGAEVKKPGASVKVSCKASGFNIEDYYMHWVRQAPGQRLEWMGRIDPEDAETTYSPKFQGRVTIIPDTSANTAYMELSSLRSEDTAVYYCARSIYLDPMDYWGQGTLVTVSS
VL: DIQMTQSPKSLSASVGDRVTITCRASQDVTTALAWYQQKPGQSPKLLIYWATTRHSGVPSRFSGSGSGTDFTLTISSLQPEDFATYYCQQHYSTPYTFGQGTKLEIKR
notes: Human IgG1 / kappa
B4: humanized anti-TMPRSS6 antibody variant hzMWTx-001 Var (antibody, human IgG1, kappa, N297A, V domains shown)
VH: EVQLVQSGAEVKKPGASVKVSCKASGYTFTSYWITWVRQAPGQRLEWIGNIYPGSGSTYYNEKFKSKATITRDTSSRTAYMELSSLRSEDTAVYYCAPYDADYAMDYWGQGTLVTVSS
VL: DIQMTQSPSSLSASVGDRVTITCKASQDISNYLSWFQQKPGKAPKLLIYRANRLVEGVPSRFSGSGSGTDFTLTISSLQPEDFATYFCLQYDEFPLTFGGGTKVEIKR
notes: Human IgG1 / kappa
B5: MWTx-001 anti-TMPRSS6 monoclonal antibody (antibody, mouse IgG2a, kappa, V domains shown)
VH: QVQLQQPGAELAKPGASVKMSCKASGYTFTSYWITWVKQRPGQDLEWIGNIYPGSGSTYYNEKFKSKATLTVDTSSRTAYMQLSSLTSADSAVYYCAPYDSDYAMDYWGQGTSVTVSS
VL: DIKMTQSPSSMYASLGERVTITCKASQDINNYLSWFQQKPGKSPKTLIYRANRLVDGVPSRVSGSGSGQDYSLTISSLEYEDVGIYFCLQYDEFPLTFGAGTKLELKR
notes: Mouse monoclonal antibody from hybridoma (ATCC PTA-126759)
B6: MWTx-003 anti-TMPRSS6 monoclonal antibody (antibody, mouse IgG2b, kappa, V domains shown)
VH: EVQLQQSGAELVKPGASVKLSCTASGFNIEDYYIHWVKERTEQGLEWIGRIDPEDGETTYAPQFQGKATIIPDTSSNTAYMQLSSLTSEDAAVYYCARSIYLDPMDYWGQGTSVTVSS
VL: DIVMTQSHKFMSTSVGDRVSITCKASQDVTTAVAWYQQKPGQSPKILIYWATTRHTGVPDRFTGSISGTTYILTISSVQAEDLALYYCQQHYSTPYTFGGGTKLEIKR
notes: Mouse monoclonal antibody from hybridoma (ATCC PTA-126761); The recombinant version r4K12B has the same HC and LC; also called r4K12B; recombinant MWTx-003

Each binder was assayed against T1, matriptase (ST14) over-expressed in … (assay: FACS on permeabilized HEK293T cells over-expressing matriptase (ST14)).
Excerpt: To determine if anti-TMPRSS6 antibodies bind to homologous matriptases, HEK293T cells over-expressing matriptase (ST14) (SEQ ID NO: 100) (FIGS. 5B, 5E, 5H, 5K, 5N, 5Q), and HEK293T cells over-expressing matriptase-3 (TMPRSS7) (SEQ ID NO: 101) (FIGS. 5C, 5F, 5I, 5L, 5O, 5R) were collected (generated in house). HEK293T cells stably expressing human TMPRSS6 (matriptase-2) (SEQ ID NO: 97) (generated by LakePharma Inc as described above, FIGS. 5A, 5D, 5G, 5J, 5M, 5P) were used as a positive control and HEK293T cells (FIGS. 5A-5R) were used as a negative control (as described above). Cells were blocked and permeabilized with dPBS+3% BSA+0.1% Tween-20 before incubation with various anti-TMPRSS6 antibodies diluted in dPBS+3% BSA+0.1% Tween-20. Cells were incubated with anti-TMPRSS6 antibodies and their humanized variants at a concentration of roughly 1 μg/ml for 1 hr. After incubation, cells were washed with dPBS and incubated with goat anti-mouse IgG conjugated with AlexaFluor-488 (Invitrogen, FIGS. 5A-5I) or goat anti-human IgG conjugated with Allophycocyanin (APC) (Jackson Immuno Research, FIGS. 5J-5R) as a 2° antibody. At last, cells were washed with dPBS and re-suspended with dPBS+1 mM EDTA, and then subjected to FACS analysis using a NOVOCYTE® Flow Cytometer. Bound antibody was determined by excitation at 488 nm and measurement of emission (FITC-A) at 530 nm (FIGS. 5A-5I) or by excitation at 640 nm and measurement of emission (APC-A) at 675 nm (FIGS. 5J-5R). Results for these assays are shown in histogram plots in FIGS. 5A-5R.
B1: no binding (tested: roughly 1 µg/ml).
B2: no binding (tested: roughly 1 µg/ml).
B3: no binding (tested: roughly 1 µg/ml).
B4: no binding (tested: roughly 1 µg/ml).
B5: no binding (tested: roughly 1 µg/ml).
B6: no binding (tested: roughly 1 µg/ml).

Each binder was assayed against T2, TMPRSS6 expressed in transfected HepG2 … (assay: cell-based or functional assay).
With B1 the “EC50 of the increase of HAMP promoter activity (HAMP-luciferase reporter assay, HepG2 cells expressing TMPRSS6, hBMP6)” value was 1 µg/mL.
For B2, the “EC50 of the increase of HAMP promoter activity (HAMP-luciferase reporter assay, HepG2 cells expressing TMPRSS6, hBMP6)” value was 0.3 µg/mL.
B3 was tested, and the “EC50 of the increase of HAMP promoter activity (HAMP-luciferase reporter assay, HepG2 cells expressing TMPRSS6, hBMP6)” value was 0.3 µg/mL.
In the case of B4, the “EC50 of the increase of HAMP promoter activity (HAMP-luciferase reporter assay, HepG2 cells expressing TMPRSS6, hBMP6)” value is reported as 0.8 µg/mL.
For B5, the “EC50 of the increase of HAMP promoter activity (HAMP-luciferase reporter assay, HepG2 cells expressing TMPRSS6, hBMP6)” value was 3 µg/mL.
For B6, the “EC50 of the increase of HAMP promoter activity (HAMP-luciferase reporter assay, HepG2 cells expressing TMPRSS6, hBMP6)” value was 2 µg/mL.

From patent publication US20250136718A1 (MABWELL THERAPEUTICS, published 2025)
